Reference: IntAct's records for PubMed 18369319

B1: Beta-adrenergic receptor kinase 1 (Homo sapiens), P25098 (parent)
chain: MADLEAVLADVSYLMAMEKSKATPAARASKKILLPEPSIRSVMQKYLEDRGEVTFEKIFSQKLGYLLFRDFCLNHLEEARPLVEFYEEIKKYEKLETEEERVARSREIFDSYIMKELLACSHPFSKSATEHVQGHLGKKQVPPDLFQPYIEEICQNLRGDVFQKFIESDKFTRFCQWKNVELNIHLTMNDFSVHRIIGRGGFGEVYGCRKADTGKMYAMKCLDKKRIKMKQGETLALNERIMLSLVSTGDCPFIVCMSYAFHTPDKLSFILDLMNGGDLHYHLSQHGVFSEADMRFYAAEIILGLEHMHNRFVVYRDLKPANILLDEHGHVRISDLGLACDFSKKKPHASVGTHGYMAPEVLQKGVAYDSSADWFSLGCMLFKLLRGHSPFRQHKTKDKHEIDRMTLTMAVELPDSFSPELRSLLEGLLQRDVNRRLGCLGRGAQEVKESPFFRSLDWQMVFLQKYPPPLIPPRGEVNAADAFDIGSFDEEDTKGIKLLDSDQELYRNFPLTISERWQQEVAETVFDTINAETDRLEARKKAKNKQLGHEEDYALGKDCIMHGYMSKMGNPFLTQWQRRYFYLFPNRLEWRGEGEAPQSLLTMEEIQSVEETQIKERKCLLLKIRGGKQFILQCDSDPELVQWKKELRDAYREAQQLVQRVPKMKNKPRSPVVELSKVPLVQRGSANGL
partner: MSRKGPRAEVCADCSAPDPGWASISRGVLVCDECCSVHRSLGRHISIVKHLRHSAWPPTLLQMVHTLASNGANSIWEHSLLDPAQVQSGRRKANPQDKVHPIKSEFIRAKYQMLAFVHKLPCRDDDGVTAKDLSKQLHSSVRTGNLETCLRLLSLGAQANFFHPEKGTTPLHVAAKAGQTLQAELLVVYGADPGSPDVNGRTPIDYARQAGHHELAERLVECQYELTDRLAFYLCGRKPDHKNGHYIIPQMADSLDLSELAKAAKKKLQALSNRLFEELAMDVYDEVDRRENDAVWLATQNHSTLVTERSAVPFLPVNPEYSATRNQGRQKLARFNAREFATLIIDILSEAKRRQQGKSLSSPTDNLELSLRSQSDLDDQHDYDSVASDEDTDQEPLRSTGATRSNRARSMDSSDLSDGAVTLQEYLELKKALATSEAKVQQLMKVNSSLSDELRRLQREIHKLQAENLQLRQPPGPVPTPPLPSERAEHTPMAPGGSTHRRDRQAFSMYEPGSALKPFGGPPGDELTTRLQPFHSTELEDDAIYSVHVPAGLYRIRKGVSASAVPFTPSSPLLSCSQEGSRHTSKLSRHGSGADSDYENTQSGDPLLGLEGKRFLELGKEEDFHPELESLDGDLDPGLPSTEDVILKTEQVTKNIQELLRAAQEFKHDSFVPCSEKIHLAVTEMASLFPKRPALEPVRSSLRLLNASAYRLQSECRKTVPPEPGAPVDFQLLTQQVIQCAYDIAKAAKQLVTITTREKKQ

Variants of: B1
Settings: with git1_human GIT1, Q9Y2X7

Variant | effect of a mutation on the interaction
Y86D;Y92D | increasing interaction

Variants of: B1
Settings: with git1_human GIT1, Q9Y2X7
Remark: another data set of the same source

Variant | effect of a mutation on the interaction
S670D | disrupting interaction

Variants of: B1
Settings: with git1_human GIT1, Q9Y2X7
Remark: another data set of the same source

Variant | effect of a mutation on the interaction
S670A | increasing interaction

Variants of: B1
Settings: with git1_human GIT1, Q9Y2X7
Remark: another data set of the same source

Variant | effect of a mutation on the interaction
Y13F;Y86F;Y92F | disrupting interaction
